Measured values from article PMC2925389, “Pre-Steady-State Kinetic Analysis of Truncated and Full-Length Saccharomyces cerevisiae DNA Polymerase Eta” (Journal of Nucleic Acids, 2010).

Legend:
[1] = target: T1, yPolη truncated (catalytic core) (Saccharomyces cerevisiae) (UniProt Q04049); test: fluorescence titration (2-aminopurine); settings: 2-aminopurine at position 19 of the 41-mer template (X, written as A); 23°C, buffer A (composition not in material; without BSA for fluorescence); EMSA 10 nM DNA, 10-450 nM protein, 20 min, 4.5% native gel, 40 mM Tris in running …
T1 sequence: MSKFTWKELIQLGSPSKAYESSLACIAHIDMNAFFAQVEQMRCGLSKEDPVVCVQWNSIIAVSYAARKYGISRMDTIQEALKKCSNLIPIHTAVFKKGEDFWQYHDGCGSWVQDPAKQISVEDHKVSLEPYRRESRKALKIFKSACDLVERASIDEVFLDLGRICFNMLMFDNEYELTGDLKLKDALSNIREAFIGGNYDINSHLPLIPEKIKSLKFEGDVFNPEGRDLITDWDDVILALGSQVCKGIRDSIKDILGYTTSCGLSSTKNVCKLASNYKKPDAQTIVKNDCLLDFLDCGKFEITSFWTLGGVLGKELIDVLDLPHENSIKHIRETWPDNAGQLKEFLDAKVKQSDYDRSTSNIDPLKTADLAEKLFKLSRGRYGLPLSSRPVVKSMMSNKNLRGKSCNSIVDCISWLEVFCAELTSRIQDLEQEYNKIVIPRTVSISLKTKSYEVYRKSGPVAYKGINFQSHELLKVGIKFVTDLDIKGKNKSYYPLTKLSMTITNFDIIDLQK

[2] = target: T2, yPolη full-length (Saccharomyces cerevisiae) (UniProt Q04049); test: fluorescence titration (2-aminopurine); settings: 2-aminopurine at position 19 of the 41-mer template (X, written as A); 23°C, buffer A (composition not in material; without BSA for fluorescence); EMSA 10 nM DNA, 10-450 nM protein, 20 min, 4.5% native gel, 40 mM Tris in running …
T2 sequence: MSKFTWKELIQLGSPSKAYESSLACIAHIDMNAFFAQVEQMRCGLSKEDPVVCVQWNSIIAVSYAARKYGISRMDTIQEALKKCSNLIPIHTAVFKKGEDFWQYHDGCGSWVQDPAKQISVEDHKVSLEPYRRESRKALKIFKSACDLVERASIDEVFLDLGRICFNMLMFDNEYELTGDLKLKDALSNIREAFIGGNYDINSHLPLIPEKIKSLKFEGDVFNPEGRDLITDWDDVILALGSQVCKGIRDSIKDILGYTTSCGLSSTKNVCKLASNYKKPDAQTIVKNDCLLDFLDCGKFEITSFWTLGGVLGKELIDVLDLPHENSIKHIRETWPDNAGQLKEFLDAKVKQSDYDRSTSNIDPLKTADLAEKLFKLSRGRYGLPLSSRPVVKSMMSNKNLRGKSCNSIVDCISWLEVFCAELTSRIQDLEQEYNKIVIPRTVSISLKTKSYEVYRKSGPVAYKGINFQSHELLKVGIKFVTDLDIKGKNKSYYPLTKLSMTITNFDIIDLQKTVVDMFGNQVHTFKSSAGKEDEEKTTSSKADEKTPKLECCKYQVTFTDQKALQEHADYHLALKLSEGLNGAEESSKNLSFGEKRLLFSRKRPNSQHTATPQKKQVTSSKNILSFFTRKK

CGCAGCCGTCCAACCAACTCA / GGACGGCATTGGATCGACACTGAGTTGGTTGGACGGCTGCG [F-8 21/41-mer]
Kd [1]: 13 nM
Kd [2]: 7 nM
